Experiment [1] deals with T47D-MUC1*. Briefly: xCELLigence impedance cytotoxicity, T47D-MUC1*. Format: cell-based, human. The settings on record: xCELLigence; 40-120 hours incubation; read-out: IC50, T47D-MUC1*. As for the experimental part: (§1) An xCELLigence RTCA MP Instrument (Agilent) was used to assess real-time killing of target cancer cells). In the xCELLigence system, target cancer cells, which are adherent, are plated onto electrode array 96-well plates. Adherent cells insulate the electrode and increase the impedance. The number of adherent cancer cells is directly proportional to impedance. […] Therefore, increasing impedance reflects the growth of the cancer cells and decreasing impedance reflects the killing of the cancer cells.
(§2) Target Cancer cells (Table 9) were seeded onto a multi-electrode well plate at a density of 5000 cells/well (100 μL of a 50,000 cells/mL stock) and incubated for 24 hr in a 37° C./5% CO2 incubator. ADCs were prepared as a 2× solution in corresponding growth media and 100 μL of each concentration was added to target cells. As a positive control (100% cell killing) cells were treated with either 1% triton or 1 μM Taxol instead of ADC. After 40-120 hours incubation in a 37° C./5% CO2 incubator cell killing was assessed. In this assay, impedance is measured in real-time. When the adherent cancer cells are killed and come off the electrode surface, impedance (insulation) decreases.

Experiment [2] deals with T47D-MUC1*. Briefly: PrestoBlue live/dead cell assay, T47D-MUC1*. In kind it is cell-based, human. The conditions noted are these: Presto Blue; 72-120 hour incubation. The protocol:
(§3) Another method of measuring the killing activity of ADCs against target cancer cells is to use the PrestoBlue live/dead cell assay (ThermoFisher). Target cancer cells were seeded in a black-walled, clear-bottom 96-well tissue culture plate at a density of 5000 cells/well (100 μL of a 50,000 cells/mL stock) and incubated overnight in a 37° C./5% CO2 incubator. ADCs were prepared as a 2× solution in corresponding cancer cell growth media and 100 μL of each concentration was added to target cancer cells. As a positive control (100% killing) cancer cells were treated with 1 μM Taxol instead of ADC. After 72 hour-120 hour incubation in a 37° C./5% CO2 incubator, cell viability was measure by fluorescence using the PrestoBlue HS assay (ThermoFisher). Briefly, after the incubation period, 20 μL of PrestoBlue HS solution was added. Fluorescence (Ex 560 nm/Em 590 nm) was recorded after 30-90 min. incubation using a Tecan plate reader. Percentage viability was determined by PrestoBlue HS staining and normalized to 1 μM taxol treated cells.
(§4) The normalized fluorescence values were imported into the graph program, Sigma Plot, data plotted as ADC concentration versus normalized fluorescence signal and curve fitted using a four-parameter Hill equation: f=y0+a*x^b/(c^b+x^b) to calculate IC50 values. IC50 values for the ADCs were generally consistent between the xCELLigence and Presto Blue assays.

The test system of experiment [3] is T47D-MUC1* xenograft tumors. Put plainly: T47D-MUC1* breast cancer xenograft. In kind it is in vivo, NOD/SCID mice. The settings on record: intraperitoneal; MMAE ADCs 5-10 mg/kg Days 7, 14, 20; deruxtecan/exatecan ADCs 20 mg/kg weekly x7. The protocol: (§5) For breast cancer xenografts, female NOD/SCID mice (weight 18-22 g, 6-8 weeks old, Charles River Laboratories) previously implanted with a 90-day release estrogen pellet (Innovative Research Laboratories) were subcutaneously injected under isoflurane anesthesia (ISOTHESIA, 250 ml (HENRY SCHEIN, NDC: 11695-6776-2) with one million luciferase-positive T47D breast cancer cells expressing low levels of MUC1*(ATCC) or one million luciferase-positive T47D-MUC1* cells overproducing MUC1* using a BD 26G Insulin Syringes with Detachable Needle (Fisher cat: 329652) or BD 28G Lo-Dose U-100 Insulin Syringes (Fisher cat: 329461).
(§6) Tumor volume was measured from bioluminescence images acquired with a Xenogen IVIS-Spectrum system (Perkin Elmer). Mice were injected […] into the scruff of the neck with 150 ul, 30 mg/mL, D-Luciferin (XenoLight™ D-Luciferin Potassium Salt; PerkinElmer P/N 122799), placed under isoflurane anesthesia, and photographed within 10 minutes of the Leciferin injection. Data was expressed graphically as Radiance (photons/sec) as a function of days post-tumor implantation.
(§7) Tumor mass was determined from tumors excised from mice receiving T47D cells on Day 95 and mice receiving T47D-MUC1* cells on Day 96. […]

Experiment [4] relates to T47D. Put plainly: xCELLigence impedance cytotoxicity, T47D. In kind it is cell-based, human. The settings on record: xCELLigence; 40-120 hours incubation; read-out: IC50, T47D. The protocol: as §1, §2
A further experiment relates to T47D xenograft tumors. Put plainly: T47D breast cancer xenograft. Format: in vivo, NOD/SCID mice. The conditions noted are these: intraperitoneal; MMAE ADCs 5-10 mg/kg Days 7, 14, 20; deruxtecan/exatecan ADCs 20 mg/kg weekly x7. As for the experimental part: as §5, §6, §7
The next experiment deals with NCI-H1975. Briefly: xCELLigence impedance cytotoxicity, NCI-H1975. In kind it is cell-based, human. The conditions noted are these: xCELLigence; 40-120 hours incubation; read-out: IC50, NCI-H1975. As for the experimental part:
as §1, §2

Another experiment deals with HPAFII. Put plainly: PrestoBlue live/dead cell assay, HPAFII. In kind it is cell-based, human. The conditions noted are these: Presto Blue; 72-120 hour incubation. As for the experimental part:
as §3, §4

A further experiment deals with HPAFII-MUC1*. Briefly: PrestoBlue live/dead cell assay, HPAFII-MUC1*. In kind it is cell-based, human. The conditions noted are these: Presto Blue; 72-120 hour incubation. As for the experimental part:
as §3, §4

For experiment [5], the system named is T47D. Briefly: PrestoBlue live/dead cell assay, T47D. Format: cell-based, human. The settings on record: Presto Blue; 72-120 hour incubation. The protocol:
as §3, §4

A further experiment concerns H1975. Put plainly: PrestoBlue live/dead cell assay, H1975. In kind it is cell-based, human. The conditions noted are these: Presto Blue; 72-120 hour incubation. As for the experimental part: as §3, §4
The target in experiment [6] is MUC1* on cancer cells and tumour sections (UniProt P15941). Briefly: IHC with C2 on untreated HPAFII-wt pancreatic tumors excised from mice.
For experiment [7] the target is unchanged. Put plainly: IHC with C2 on untreated T47D-wt breast tumors excised from mice.
A further experiment addresses T1, PSMGFR C-10 peptide.
T1 peptide: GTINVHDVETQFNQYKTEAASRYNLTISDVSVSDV
Put plainly: ELISA on PSMGFR C-10 peptide; Table 4 grade.

In experiment [8] the target is MUC1* on cancer cells and tumour sections (UniProt P15941). Put plainly: IHC with C2 on untreated H1975-wt lung tumors excised from mice.
For another experiment, the target named is T2, PSMGFR N-30 peptide.
T2 peptide: SVSDVPFPFSAQSGA
Put plainly: peptide binding assay (FIGS. 2A, 2B).

The target of a further experiment is T3, PSMGFR N-19 C-5 peptide.
T3 peptide: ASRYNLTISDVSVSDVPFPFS
Put plainly: peptide binding assay (FIGS. 2A, 2B).

The next experiment has as its target T4, PSMGFR peptide.
T4 construct: also called PSMGFR 45mer
T4 peptide: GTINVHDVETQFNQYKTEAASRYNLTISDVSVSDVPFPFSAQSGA
Briefly: peptide binding assay (FIGS. 1A, 1B).

Another experiment has as its target T5, PSMGFR N-10 peptide.
T5 peptide: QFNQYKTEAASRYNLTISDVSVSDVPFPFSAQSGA
Briefly: ELISA on PSMGFR N-10 peptide; Table 4 column 'Binds N-10', grade.

B1: C2 MC-VC-PAB MMAE (conjugate, listed as Mus sp.)
heavy: EVQLEESGGGLVKPGGSLKLSCAASGFTFSGYAMSWVRQTPEKRLEWVATISSGGTYIYYPDSVKGRFTISRDNAKNTLYLQMSSLRSEDTAMYYCARLGGDNYYEYFDVWGAGTTVTVSSAKTTPPSVYAKTTPPSVYPLAPGSAAQTNSMVTLGCLVKGYFPEPVTVTWNSGSLSSGVHTFPAVLQSDLYTLSSSVTVPSSTWPSETVTCNVAHPASSTKVDKKIVPRDCGCKPCICTVPEVSSVFIFPPKPKDVLTITLTPKVTCVVVDISKDDPEVQFSWFVDDVEVHTAQTQPREEQFNSTFRSVSELPIMHQDWLNGKEFKCRVNSAAFPAPIEKTISKTKGRPKAPQVYTIPPPKEQMAKDKVSLTCMITDFFPEDITVEWQWNGQPAENYKNTQPIMDTDGSYFVYSKLNVQKSNWEAGNTFTCSVLHEGLHNHHTEKSLSHSPGK
light: DIVITQSTASLGVSLGQRATISCRASKSVSTSGYSYMHWYQQRPGQPPKLLIYLASNLESGVPARFSGSGSGTDFTLNIHPVEEEDAATYYCQHSRELPFTFGGGTKLEIKRADAAPTVSADAAPTVSIFPPSSEQLTSGGASVVCFLNNFYPKDINVKWKIDGSERQNGVLNSWTDQDSKDSTYSMSSTLTLTKDEYERHNSYTCEATHKTSTSPIVKSFNRNEC
modifications: MC-VC-PAB-MMAE
notes: ADC: anti-MUC1* antibody C2 conjugated via MC-VC-PAB linker to MMAE
Turning to B1, the IC50 in the experiment on T47D-MUC1* [1] is 1.8 nM; with T47D-MUC1* [2] it was 2.6 nM; with T47D [4], 156 nM; in the experiment with NCI-H1975, 23 nM; in the experiment with HPAFII, 112 nM; in the experiment with HPAFII-MUC1* it was 63 nM. For the same molecule, the half-maximal inhibitory concentration (IC50) with T47D [5] is 187 nM; with H1975 it was 89 nM. For the same molecule, the “growth of T47D-MUC1* xenograft tumors” value in [3] is reported as “inhibit the growth”. The “growth of T47D xenograft tumors” value in the experiment on T47D xenograft tumors is on record as “inhibit the growth”.

B2: anti-MUC1* antibody C2 (antibody)
VH: EVQLEESGGGLVKPGGSLKLSCAASGFTFSGYAMSWVRQTPEKRLEWVATISSGGTYIYYPDSVKGRFTISRDNAKNTLYLQMSSLRSEDTAMYYCARLGGDNYYEYFDVWGAGTTVTVSSAKTTPPSVYPLAPGSAAQTNSMVTLGCLVKGYFPEPVTVTWNSGSLSSGVHTFPAVLQSDLYTLSSSVTVPSSTWPSETVTCNVAHPASSTKVDKKIVPRDCGCKPCICTVPEVSSVFIFPPKPKDVLTITLTPKVTCVVVDISKDDPEVQFSWFVDDVEVHTAQTQPREEQFNSTFRSVSELPIMHQDWLNGKEFKCRVNSAAFPAPIEKTISKTKGRPKAPQVYTIPPPKEQMAKDKVSLTCMITDFFPEDITVEWQWNGQPAENYKNTQPIMDTDGSYFVYSKLNVQKSNWEAGNTFTCSVLHEGLHNHHTEKSLSHSPGK
VL: DIVITQSTASLGVSLGQRATISCRASKSVSTSGYSYMHWYQQRPGQPPKLLIYLASNLESGVPARFSGSGSGTDFTLNIHPVEEEDAATYYCQHSRELPFTFGGGTKLEIKRADAAPTVSIFPPSSEQLTSGGASVVCFLNNFYPKDINVKWKIDGSERQNGVLNSWTDQDSKDSTYSMSSTLTLTKDEYERHNSYTCEATHKTSTSPIVKSFNRNEC
notes: Monoclonal antibody raised against the PSMGFR peptide; also called mAb C2; IgG1 C2 antibody
On to B2, for which the H-score stood at 220 in experiment [6], 10 in experiment [7] and 40 in [8]. For the same molecule, the binding result in the experiment with PSMGFR C-10 peptide is reported as “no binding”.

B3: anti-MUC1* antibody 3C2B1 (antibody, V domains shown)
VH: EVMLVESGGGLVKPGGSLKLSCAASGITFSTYTMSWVRQTPEKRLEWVATISTGGDKTYYSDSVKGRFTISRDNAKNNLYLQMSSLRSEDTALYYCARGTTAMYYYAMDYWGQGTSVTVSS
VL: DIVLTQSPASLAVSLGQRATISCRASKSISTSDYNYIHWYQQKPGQPPKLLIYLASNLESGVPARFSGSGSGTDFTLNIHPVEEEDAATYYCQHSRELPLTFGAGTKLELK
notes: Humanised form is m27; also called 32CB1
Turning to B3, the binding result in the experiment with PSMGFR N-30 peptide is given as “binds”; with PSMGFR N-19 C-5 peptide, “binds”; with PSMGFR C-10 peptide, “no binding”; in the experiment with PSMGFR peptide it was “binds”; in the experiment with PSMGFR N-10 peptide, “binds”.
